The assay concerns the target dengue virus envelope protein (dengue virus serotype 2 strain New Guinea C). Nature of the assay: proximity ligation.

As to “dengue virus capsid protein (natural protein)”, the PLA foci per cell (WT cells) (foci per cell) is 11, the PLA foci per cell (YBX1 KO1 cells) (foci per cell) was 5 and the PLA foci per cell (YBX1 KO2 cells) (foci per cell) was 7.
The like results for “dengue virus prM protein (natural protein)” were, in that order, 26, 58 and 27.

The record behind these values is article PMC8903895.
